The record followed here is article PMC10204484.

For this assay, the target named is anti-DENV antibody with the 3Cam2 variable region and the LALA Fc variant (human).

As to “mouse C1q (from UniProt P98086 23-245; P14106 26-253; Q02105 30-246) (complex)”, the C3b ELISA (complement activation) on plate-immobilised antibody incubated with AG129 mouse serum; absorbance ratio versus the well without antibody immobilization is 1.5 fold.
